Data: patent US20250145684A1 (IMMATICS BIOTECHNOLOGIES, published 2025)

Target: T1, HLA-B*08:01 (human)
T1 construct: MHC monomer first loaded with a UV-sensitive peptide that is cleaved by UV light and exchanged for the test peptide
Assay: UV peptide exchange ELISA
Procedure, shortened: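 Peptide–MHC complexes formed by UV-mediated exchange of a photocleavable ligand; exchange yield assessed by ELISA on streptavidin-coated plates, samples diluted 100-fold. Bound complexes detected with HRP anti-β2m and TMB at 450 nm against HLA-A*02:01 monomer standards (15–500 ng/ml).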

Binder	peptide exchange yield
QQIDRVVEV [QQIDRVVEV (SEQ ID NO: 249)]	20 to 50%
ELFQRPVL [ELFQRPVL (SEQ ID NO: 35)]	20 to 50%
NAYEAPSI [NAYEAPSI (SEQ ID NO: 241)]	20 to 50%
SIQSRYISM [SIQSRYISM (SEQ ID NO: 3)]	50 to 75%
KPQSLQLVL [KPQSLQLVL (SEQ ID NO: 242)]	20 to 50%
RLLQKSKEL [RLLQKSKEL (SEQ ID NO: 246)]	20 to 50%
DLVLKRCL [DLVLKRCL (SEQ ID NO: 24)]	≥ 75%
DAKSKIEQI [DAKSKIEQI (SEQ ID NO: 39)]	20 to 50%
HALPPYITVL [HALPPYITVL (SEQ ID NO: 244)]	20 to 50%
ELFLHPVL [ELFLHPVL (SEQ ID NO: 29)]	20 to 50%
AARAPPQAL [AARAPPQAL (SEQ ID NO: 250)]	20 to 50%
IPLAIARL [IPLAIARL (SEQ ID NO: 238)]	50 to 75%
EAFSRASL [EAFSRASL (SEQ ID NO: 37)]	20 to 50%
EVYQKIIL [EVYQKIIL (SEQ ID NO: 38)]	50 to 75%
EGVPPGTVL [EGVPPGTVL (SEQ ID NO: 243)]	50 to 75%
KVIDRKVEL [KVIDRKVEL (SEQ ID NO: 240)]	20 to 50%
NPYLKLVL [NPYLKLVL (SEQ ID NO: 32)]	20 to 50%
IYRKKYIL [IYRKKYIL (SEQ ID NO: 34)]	20 to 50%
IVKIKVQEL [IVKIKVQEL (SEQ ID NO: 36)]	20 to 50%
DLQKKAQAL [DLQKKAQAL (SEQ ID NO: 30)]	20 to 50%
DAAAFFKSV [DAAAFFKSV (SEQ ID NO: 251)]	20 to 50%
TPEPSVHAL [TPEPSVHAL (SEQ ID NO: 247)]	20 to 50%
HLHPKGREL [HLHPKGREL (SEQ ID NO: 25)]	20 to 50%
WIGLRNLDL [WIGLRNLDL (SEQ ID NO: 33)]	50 to 75%
SEVNKHETAL [SEVNKHETAL (SEQ ID NO: 248)]	20 to 50%
SPRVKWTF [SPRVKWTF (SEQ ID NO: 31)]	20 to 50%
DPKSRLKSL [DPKSRLKSL (SEQ ID NO: 28)]	20 to 50%
DARCKLAEL [DARCKLAEL (SEQ ID NO: 26)]	20 to 50%
GPRGPSSGHPL [GPRGPSSGHPL (SEQ ID NO: 245)]	20 to 50%
SEPVMRVTL [SEPVMRVTL (SEQ ID NO: 239)]	20 to 50%
